# Laboratory results reported in article PMC5372524, “Structural Basis of Native CXCL7 Monomer Binding to CXCR2 Receptor N-Domain and Glycosaminoglycan Heparin” (International Journal of Molecular Sciences, 2017).
# Where “and” joins values, the source holds several entries; their conditions need not be identical. Identical values can stand only once.
# Molecular target: the molecule itself
# Test: relative peak intensities in 2D HSQC NMR spectra; monomer/dimer/tetramer levels of CXCL7 as a function of buffer, temperature, pH and concentration (Table S1)
protein,measurement,value
"CXCL7 (NAP-2, neutrophil-activating peptide 2), wild type (natural protein, UniProt P02775 59-128, looked up, Chemokine CXCL7, also known as NAP-2; 15N-labelled for the HSQC titrations; Exists as monomer, dimer and tetramer depending on pH and concentration; also called WT CXCL7; native CXCL7 monomer; source: Escherichia coli (LB or 15N/13C enriched minimal medium), purified (nickel column, reverse phase HPLC), lyophilized) AELRCMCIKTTSGIHPKNIQSLEVIGKGTHCNQVEVIATLKDGRKICLDPDAPRIKKIVQKKLAGDESAD",stoichiometry N,4 and 2
